Data: US20250382334

Experiments:
[1] = target: v2.1 BE-VLP MMLV gag-ABE8e fusion protein (cleavable linker …)
[2] = target: v2.2 BE-VLP MMLV gag-ABE8e fusion protein (cleavable linker VQALVLTQ)
[3] = target: v2.3 BE-VLP MMLV gag-ABE8e fusion protein (cleavable linker […])
[4] = target: v2.4 BE-VLP MMLV gag-ABE8e fusion protein (cleavable linker […])

B1: Moloney murine leukemia virus (MMLV) protease, supplied as wild-type MMLV gag-pro-pol polyprotein (protein)
chain: TLDDQGGQGQEPPPEPRITLKVGGQPVTFLVDTGAQHSVLTQNPGPLSDKSAWVQGATGGKRYRWTTDRKVHLATGKVTHSFLHVPDCPYPLLGRDLLTKLKAQIHFEGSGAQVMGPMGQPLQVL
- fraction of cleaved ABE8e versus full-length gag-ABE8e present in purified eVLPs (western blot) [1]: the v2.4 linker is cleaved more efficiently than the v2.1 and v2.2 linkers, but less efficiently than the v2.3 linker
- fraction of cleaved ABE8e versus full-length gag-ABE8e present in purified eVLPs (western blot) [2]: the v2.4 linker is cleaved more efficiently than the v2.1 and v2.2 linkers, but less efficiently than the v2.3 linker
- fraction of cleaved ABE8e versus full-length gag-ABE8e present in purified eVLPs (western blot) [3]: the v2.4 linker is cleaved more efficiently than the v2.1 and v2.2 linkers, but less efficiently than the v2.3 linker
- fraction of cleaved ABE8e versus full-length gag-ABE8e present in purified eVLPs (western blot) [4]: the v2.4 linker is cleaved more efficiently than the v2.1 and v2.2 linkers, but less efficiently than the v2.3 linker
